B1: Hammerhead Ribozyme (parent)
chain: ACCGGAUGUGCUUUCCGGUCUGAUGAGUCCGUGAGGACGAAACAG

Variants of: B1
Assay: self-cleavage, relative activity (ratio to wild type); higher = more cleavage; co-transcriptional

Variant | self-cleavage
ACCGGAUGGGCUUUCCGGUCUGAUGAGUCCGUGAUGACGAAACAG [U9G G35U] | 0.64
ACCGGAUGUGCUUUCCGGUCUGAUGAGUCAGUGAGGACGAAUCAG [C30A A42U] | 0.312
ACCGGACGUGCUUUCCGGUCUGAUGAGUUCGUGAGGACGAAACAG [U7C C29U] | 0.992
ACCGGAUGUGCUGUCCGGUCUGAUGACUCCGUGAGGACGAAACAG [U13G G27C] | 0.546
ACCGGAUGUGCUUUCCGGCCCGAUGAGUCCGUGAGGACGAAACAG [U19C U21C] | 0.251
ACCGGACGUGCUUUCCGGUCUGAUGAGUCCGUGAGGACCAAACAG [U7C G39C] | 0.331
ACCGGAUGUGCUUCCCGGUCUGAUGAGUCCAUGAGGACGAAACAG [U14C G31A] | 0.918
ACCGGAUGUGCUUUCCGGUGGGAUGAGUCCGUGAGGACGAAACAG [C20G U21G] | 0.376
ACCGGAUGUGCUUUCGGGUCUGAUGAGUCCGUGAGGUCGAAACAG [C16G A37U] | 0.606
ACCGGAUGUGCUUUCCGGUCUGUUGAGUCCGUGAAGACGAAACAG [A23U G35A] | 0.471
ACCGGAUGUUCUUUGCGGUCUGAUGAGUCCGUGAGGACGAAACAG [G10U C15G] | 0.826
ACCGAAUGUGCUUUCCGGUCUGAUGAGUCCGUGAGGACGUAACAG [G5A A40U] | 0.409
ACCUGAUGUGCUUUCCGGUAUGAUGAGUCCGUGAGGACGAAACAG [G4U C20A] | 0.294
AACGGAUGUGCUUUCCGGUCUGAUCAGUCCGUGAGGACGAAACAG [C2A G25C] | 0.359
ACCGGAUGUGCUUUCGGGUCUGAUGAGUCCCUGAGGACGAAACAG [C16G G31C] | 0.823
ACCGGCUGUGCUUUCCGGUCUGAUGAGUCCGUGAGGACGAAGCAG [A6C A42G] | 0.329
ACCAGAUGUGCUUUCCGGUCUGAUGAGUCCGUGAGGACGAAGCAG [G4A A42G] | 0.341
ACCGAAUGUGCCUUCCGGUCUGAUGAGUCCGUGAGGACGAAACAG [G5A U12C] | 1.07
ACCAGAUGUGCUUUCCGGUCAGAUGAGUCCGUGAGGACGAAACAG [G4A U21A] | 0.312

Variant | self-cleavage
ACCGGAUGUGCUUUCGGGUCUGAUGAGUCCGUGAGAACGAAACAG [C16G G36A] | 0.414
ACCGGAUGUGCUUUCCGGUCAGAUGAGUCCGUGAGGACGAAACGG [U21A A44G] | 0.932
ACCGGAUGUGCUUUCUGGUCUGAUGAGUCCGUGAGGACGAAGCAG [C16U A42G] | 0.232
ACCGGAAGUGCUUUCCGGUCUGAUGAGUCCGUGAGGACGGAACAG [U7A A40G] | 0.298
ACCGGAUGUGCUGUCCGGUCUGAUGAGUCCGUGAGGUCGAAACAG [U13G A37U] | 0.625
ACCGGAUCUGCUUUCCGGUCUGAUGAGUCCGUUAGGACGAAACAG [G8C G33U] | 0.971
ACCGGAUAUGCUUUCCGGUCUGAUGAGUCCGUGAGGACGAAACGG [G8A A44G] | 1.41
ACCGGAUUUGCUUUCCGGUCUGUUGAGUCCGUGAGGACGAAACAG [G8U A23U] | 0.324
ACCGGAUCUGCUUUCCGGUCUGAUGAGUCCGUGAGGACGUAACAG [G8C A40U] | 0.286
ACCGGAUGUGCUUUCCGGUCUGAUAAGUCCGUGAUGACGAAACAG [G25A G35U] | 0.35
ACCGGAUGUGCUUUCCGGCCUAAUGAGUCCGUGAGGACGAAACAG [U19C G22A] | 0.282
ACCGGAUGUGCUUUCCGGUCUGAUGAGUCCGCGAGGACAAAACAG [U32C G39A] | 0.317
ACCGGAUGUGCUUUCCGGUCUGAUGAAUCCGUGAGGACAAAACAG [G27A G39A] | 0.247
ACCGGAUGUGCUUUGCGGUCUGAUGAGUCCGUGCGGACGAAACAG [C15G A34C] | 0.671
ACCGGAGGUGCUUUCCGGUCUGAUGAGUCCGUCAGGACGAAACAG [U7G G33C] | 1.23
ACCCGAUGUGCUUUCCGGUCUGAUAAGUCCGUGAGGACGAAACAG [G4C G25A] | 0.307
ACCGGAUGUACUUUCCGGUCUGAUGAGUCCUUGAGGACGAAACAG [G10A G31U] | 0.938
AGCGGAUGUGCUUUCCGGUAUGAUGAGUCCGUGAGGACGAAACAG [C2G C20A] | 0.274
UCCGGAUGUACUUUCCGGUCUGAUGAGUCCGUGAGGACGAAACAG [A1U G10A] | 0.815

Variant | self-cleavage
ACCGGAUGUGCUUUCCGGUCUGAUGAUUCCGUGAUGACGAAACAG [G27U G35U] | 0.345
UCCGGAUGUGGUUUCCGGUCUGAUGAGUCCGUGAGGACGAAACAG [A1U C11G] | 0.646
ACCGGAUAUGCUUUCCGGUCUGAUGAGUCCGUGAGGACGAAACAU [G8A G45U] | 0.859
ACCGGCUGUGCUCUCCGGUCUGAUGAGUCCGUGAGGACGAAACAG [A6C U13C] | 0.598
ACCGGAUGUGCUUUCCGGUCUCAUGAGUCCGUGAAGACGAAACAG [G22C G35A] | 0.337
ACCGGAUGUCCUUUCCGGUCUGAUGAGUCCGUGAGAACGAAACAG [G10C G36A] | 0.586
ACCGGAUGUGCUUUCCGGUCUGAUGAGUCCGUGAGGAGGGAACAG [C38G A40G] | 0.357
ACCGGAUGUGCCUUCCGGUCUCAUGAGUCCGUGAGGACGAAACAG [U12C G22C] | 0.337
ACCGGAUGUGCUUUCCGGCCUGAUGAGUCCGUGAGGAUGAAACAG [U19C C38U] | 0.36
ACCGGAUGUGCUUUCCGGUCUGAUGCGUCCGUGAGGACAAAACAG [A26C G39A] | 0.366
ACCUGAUGUGCUGUCCGGUCUGAUGAGUCCGUGAGGACGAAACAG [G4U U13G] | 0.725
ACCGGGUGUGCUUUCCGGCCUGAUGAGUCCGUGAGGACGAAACAG [A6G U19C] | 0.486
ACCGGAUGUGCUUUCCGGUCUGAUGGGUCCGUGAUGACGAAACAG [A26G G35U] | 0.283
ACCGUAUGUGCUUUCCGGUCUGAUGAGUCCGAGAGGACGAAACAG [G5U U32A] | 0.795
ACCGGAUGUGCUUUCCGGUCUGAUGAGUCCUUGAGGACGAAGCAG [G31U A42G] | 0.28
ACCGGAUGUGCUUUCCGGUCUGAUGAGUCCGUGAGUCCGAAACAG [G36U A37C] | 0.331
ACCGGAUGUGCUUUCCGGUCUGAUGAGUCCGAGAGGUCGAAACAG [U32A A37U] | 0.754
ACCGGAUGUGUUUUCCGGUCUGAGGAGUCCGUGAGGACGAAACAG [C11U U24G] | 1.02
CCCGGAUGUGCUUUCCGGUCUGAUGAGUCCGUGAGGACGAAAAAG [A1C C43A] | 0.295

— the RNAGym collection of RNA variant scans (doi:10.7554/elife.80360)
